For this assay, the system named is glycosylated synapsin I. Put plainly: Lectin affinity chromatography with UEAI. The class given is binding, rat. The conditions noted are these: olfactory bulb lysate (500 μg), Western blotting. The method, then:
Lectin Affinity Chromatography with UEAI.
UEAI lectin conjugated to agarose (Vector Laboratories) or control protein A conjugated to agarose (Vector Laboratories) was packed into a minicolumn (50 μL bed volume; Bio-Rad), and the columns were run in parallel. The resin was equilibrated with 10 column volumes of lectin binding buffer (100 mM Tris pH 7.5, 150 mM NaCl, 1 mM CaCl2, 1 mM MgCl2, 0.5% NP-40, and 0.2% sodium deoxycholate supplemented with EDTA-free Complete™ protease inhibitors). Olfactory bulb tissue from P3 rat pups was lysed in lectin binding buffer by sonication on ice. The lysate was clarified by centrifugation at 12000×g for 10 min, and the total protein concentration was determined using the BCA protein assay (Pierce). Lysate (500 μg) was bound batch-wise with gentle end-over-end mixing at rt for 4 h. The agarose was then allowed to settle, and the flow-through was passed over the column three additional times. The columns were washed with 40 column volumes of lectin binding buffer, followed by 10 column volumes of lectin binding buffer lacking detergent. […] Following concentration, samples were boiled in 1× sample buffer (35 μL of 200 mM Tris pH 6.8, 400 mM DTT, 8% SDS, 0.2% bromophenol blue, and 40% glycerol) and analyzed by SDS-PAGE and western blotting as described above. Synapsin I was detected using mouse anti-synapsin I ascites (Synaptic Systems) at 0.1 μg/mL.
For orientation: In western blotting, separated proteins are transferred to a membrane and probed.

The results in this text go back to patent US9766245B2, “Method of detecting cancer based on glycan biomarkers” (California Institute of Technology, priority 2013, dated 2017).

“Also recorded” adds a separate entry of the source.

B1: UEAI: lectin conjugated to agarose used for affinity chromatography (protein)
chain: SDDLSFKFKNFSQNGKDLSFQGDASVIETGVLQLNKVGNNLPDETGGIARYIAPIHIWNCNTGEVASFITSFSFFMETSANPKAATDGLTFFLAPPDSPLRRAGGYFGLFEDTKDNDSSYQTVAVEFDTIGSPVNFDDPGFPHIGIDVNRVKSINAERWNKRYGLNNVANVEIIYEASSKTLTASLTYPSDQTSISVTSIVDLKEILPEWVSVGFSGGTYIGRQATHEVLNWYFTSNLINTNS
For B1, the “capture and detection of glycosylated synapsin I” value is “failed to pull-down and detect glycosylated synapsin I; also recorded: failed to capture and detect glycosylated synapsin I”.
